Experimental findings from the supplement of paper PMC5998384 are described below.

The test system of series [1] is HeLa Kyoto. Description: solubility change mitosis vs G1/S (difference of NP-40 vs SDS log2 ratios) (log2 ratio difference); higher = more soluble in mitosis.
The subject of series [2] is HeLa Kyoto. Description: thermal stability score vs G1/S (z-score of summed log2 fold changes over temperatures); higher = more thermally stable than in G1/S.
In series [3] the test system is HeLa Kyoto. Description: solubility in G1/S (NP-40 vs SDS abundance) (log2 ratio); higher = more soluble. Particulars: cell cycle stage: G1/S.
The subject of series [4] is HeLa Kyoto. Description: melting temperature (median over replicates), in situ; higher = more thermally stable.
The mark [5] stands for this setting: cell cycle stage: early G1 (4.5 h after nocodazole release).
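For melting temperature (median over replicates), in situ in this document: HeLa Kyoto cells synchronized by double thymidine or nocodazole block, proteins quantified by TMT10plex mass spectrometry, three independent biological replicates.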
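For solubility change mitosis vs G1/S (difference of NP-40 vs SDS log2 ratios) in this document: synchronized HeLa Kyoto cells (double thymidine block for G1/S, nocodazole release for mitosis), protein amounts in NP-40 versus SDS lysates quantified by mass spectrometry, three biological replicates.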
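For solubility in G1/S (NP-40 vs SDS abundance) in this document: HeLa Kyoto cells arrested at G1/S by double thymidine block, proteins quantified by TMT10plex mass spectrometry in mild NP-40 versus SDS extracts, three biological replicates.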
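For thermal stability score vs G1/S (z-score of summed log2 fold changes over temperatures) in this document: synchronized HeLa Kyoto cells, proteins quantified by TMT10plex mass spectrometry, three biological replicates, mitosis taken 0.5 h after nocodazole release, G1/S directly after double thymidine block.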

With “MAARQAVGSGAQETCGLDRILEALKLLLSPGGSGSSSLQVTKHDVLLATLKSNLSALEDKFLKDPQWKNLKLLRDEIADKAEWPQNSVDVTWSFTSQTLLLLLCLKETMIRLAANFNPGKPNPRTPEVAPALSPDALSISQQKTVQFVLQFVVTLGICPYLMPGVGVPLRYRTEFGAVVQDVVCFDAAPDATRRLYTSCKALLNVAQHTSLGSLIFCHHFGDIAAGLCQLGFCPTKRKLLTPAEEVLTEEERTLSRGALRDMLDQVYQPLAVRELLILQGGPPQSCTDVKTQMRCRAPAWLRRLCGQLLSERLMRPNGVQAVVRGILEGAGAGAAGGSDAEVTAADWKKCDLIAKILASCPQQSLSPENYYRDICPQVLDLFHFQDKLTARQFQRVATTTFITLSRERPHLAAKYLLQPVLAPLHRCLNTAELSESDMVPGTILVTEEELSRCIEDVFKVYVVGNEPLTVLMDSLLPVLGVLFLLYCFTKQSVSHIRSLCQEILLWILGKLERKKAIASLKGFAGLDKAVPSLHSLCQFRVATQGGIMITIKEAISDEDEDEALYQKVSSEQGRVEHLGDLLSHCQECGLAGDFFIFCLKELTHVASENETELKTEPFSSKSLLELEQHQTLLVEGQERKLLVLQLMAVLCERMSEQIFTNVTQVVDFVAATLQRACASLAHQAESTVESQTLSMSMGLVAVMLGGAVQLKSSDFAVLKQLLPLLEKVSNTYPDPVIQELAVDLRITISTHGAFATEAVSMAAQSTLNRKDLEGKIEEQQQTSHERPTDVAHSHLEQQQSHETAPQTGLQSNAPIIPQGVNEPSTTTSQKSGSVTTEQLQEVLLSAYDPQIPTRAAALRTLSHWIEQREAKALEMQEKLLKIFLENLEHEDTFVYLSAIQGVALLSDVYPEKILPDLLAQYDSSKDKHTPETRMKVGEVLMRIVRALGDMVSKYREPLIHTFLRGVRDPDGAHRASSLANLGELCQRLDFLLGSVVHEVTACLIAVAKTDGEVQVRRAAIHVVVLLLRGLSQKATEVLSAVLKDLYHLLKHVVCLEPDDVAKLHAQLALEELDDIMKNFLFPPQKLEKKIMVLP [TANGO6]”, the “solubility change mitosis (log2)” value in the series with HeLa Kyoto [1] is -0.193. Further, the values for the thermal stability score in the series with HeLa Kyoto [2] (setting [5]) and with HeLa Kyoto [2] (cell cycle stage: mitosis) were 0.0292 and 0.767, respectively. In addition, the “solubility in G1/S (log2)” value with HeLa Kyoto [3] was -0.171. In addition, the melting temperature came out at 50.6 °C in the series with HeLa Kyoto [4] (cell cycle stage: G1/S) and 50.3 °C in the series on HeLa Kyoto [4] (cell cycle stage: mitosis).
For the sequence “MAARRALHFVFKVGNRFQTARFYRDVLGMKVESCSVARLECSGAISAHCSDYTRITEDSFSKPYDGKWSKTMVGFGPEDDHFVAELTYNYGVGDYKLGNDFMGITLASSQAVSNARKLEWPLTEVAEGVFETEAPGGYKFYLQNRSLPQSDPVLKVTLAVSDLQKSLNYWCNLLGMKIYEKDEEKQRALLGYADNQCKLELQGVKGGVDHAAAFGRIAFSCPQKELPDLEDLMKRENQKILTPLVSLDTPGKATVQVVILADPDGHEICFVGDEAFRELSKMDPEGSKLLDDAMAADKSDEWFAKHNKPKASG [GLOD4]”, the “solubility change mitosis (log2)” value with HeLa Kyoto [1] was -0.012. Also, the values for the thermal stability score in the series on HeLa Kyoto [2] (setting [5]) and with HeLa Kyoto [2] (cell cycle stage: mitosis) were 0.704 and 0.532, respectively. Besides, the “solubility in G1/S (log2)” value with HeLa Kyoto [3] came to 0.42. Moreover, the melting temperature stood at 50.8 °C in the series on HeLa Kyoto [4] (cell cycle stage: G1/S) and 50.9 °C with HeLa Kyoto [4] (cell cycle stage: mitosis).
Turning to “MAARWRFWCVSVTMVVALLIVCDVPSASAQRKKEMVLSEKVSQLMEWTNKRPVIRMNGDKFRRLVKAPPRNYSVIVMFTALQLHRQCVVCKQADEEFQILANSWRYSSAFTNRIFFAMVDFDEGSDVFQMLNMNSAPTFINFPAKGKPKRGDTYELQVRGFSAEQIARWIADRTDVNIRVIRPPNYAGPLMLGLLLAVIGGLVYLRRSNMEFLFNKTGWAFAALCFVLAMTSGQMWNHIRGPPYAHKNPHTGHVNYIHGSSQAQFVAETHIVLLFNGGVTLGMVLLCEAATSDMDIGKRKIMCVAGIGLVVLFFSWMLSIFRSKYHGYPYSFLMS [MAGT1]”, in the series on HeLa Kyoto [1], the “solubility change mitosis (log2)” value is -0.0398. The thermal stability score with HeLa Kyoto [2] (setting [5]) worked out at 2.09; in the series with HeLa Kyoto [2] (cell cycle stage: mitosis) it was 2.05. Moreover, the “solubility in G1/S (log2)” value with HeLa Kyoto [3] is -0.189. Further, the melting temperature with HeLa Kyoto [4] (cell cycle stage: G1/S) stood at 53.9 °C; in the series on HeLa Kyoto [4] (cell cycle stage: mitosis), 53.3 °C.
Consider “MAASKPVEAAVVAAAVPSSGSGVGGGGTAGPGTGGLPRWQLALAVGAPLLLGAGAIYLWSRQQRRREARGRGDASGLKRNSERKTPEGRASPAPGSGHPEGPGAHLDMNSLDRAQAAKNKGNKYFKAGKYEQAIQCYTEAISLCPTEKNVDLSTFYQNRAAAFEQLQKWKEVAQDCTKAVELNPKYVKALFRRAKAHEKLDNKKECLEDVTAVCILEGFQNQQSMLLADKVLKLLGKEKAKEKYKNREPLMPSPQFIKSYFSSFTDDIISQPMLKGEKSDEDKDKEGEALEVKENSGYLKAKQYMEEENYDKIISECSKEIDAEGKYMAEALLLRATFYLLIGNANAAKPDLDKVISLKEANVKLRANALIKRGSMYMQQQQPLLSTQDFNMAADIDPQNADVYHHRGQLKILLDQVEEAVADFDECIRLRPESALAQAQKCFALYRQAYTGNNSSQIQAAMKGFEEVIKKFPRCAEGYALYAQALTDQQQFGKADEMYDKCIDLEPDNATTYVHKGLLQLQWKQDLDRGLELISKAIEIDNKCDFAYETMGTIEVQRGNMEKAIDMFNKAINLAKSEMEMAHLYSLCDAAHAQTEVAKKYGLKPPTL [TOMM70A]”, for which, in the series on HeLa Kyoto [1], the “solubility change mitosis (log2)” value stood at 0.0273. Further, the thermal stability score in the series with HeLa Kyoto [2] (setting [5]) was found to be 2.06; with HeLa Kyoto [2] (cell cycle stage: mitosis), 2.92. Besides, in the series on HeLa Kyoto [3], the “solubility in G1/S (log2)” value is 0.504. In addition, the melting temperature turned out to be 50.4 °C in the series with HeLa Kyoto [4] (cell cycle stage: G1/S) and 50.1 °C with HeLa Kyoto [4] (cell cycle stage: mitosis).
As for “MAASMARRLWPLLTRRGFRPRGGCISNDSPRRSFTTEKRNRNLLYEYAREGYSALPQLDIERFCACPEEAAHALELRKGELRSADLPAIISTWQELRQLQEQIRSLEEEKAAVTEAVRALLANQDSGEVQQDPKYQGLRARGREIRKELVHLYPREAQLEEQFYLQALKLPNQTHPDVPVGDESQARVLHMVGDKPVFSFQPRGHLEIGEKLDIIRQKRLSHVSGHRSYYLRGAGALLQHGLVNFTFNKLLRRGFTPMTVPDLLRGAVFEGCGMTPNANPSQIYNIDPARFKDLNLAGTAEVGLAGYFMDHTVAFRDLPVRMVCSSTCYRAETNTGQEPRGLYRVHHFTKVEMFGVTGPGLEQSSQLLEEFLSLQMEILTELGLHFRVLDMPTQELGLPAYRKFDIEAWMPGRGRFGEVTSASNCTDFQSRRLHIMFQTEAGELQFAHTVNATACAVPRLLIALLESNQQKDGSVLVPPALQSYLGTDRITAPTHVPLQYIGPNQPRKPGLPGQPAVS [SARS2]”, the “solubility change mitosis (log2)” value in the series on HeLa Kyoto [1] is -0.148. Further, the thermal stability score with HeLa Kyoto [2] (setting [5]) was 2.24; in the series with HeLa Kyoto [2] (cell cycle stage: mitosis), 1.72. In the series on HeLa Kyoto [3], the “solubility in G1/S (log2)” value was determined as 0.265. The results for the melting temperature with HeLa Kyoto [4] (cell cycle stage: G1/S) and in the series on HeLa Kyoto [4] (cell cycle stage: mitosis) were 51.5 °C and 51.4 °C, respectively.
As for “MAASQTSQTVASHVPFADLCSTLERIQKSKGRAEKIRHFREFLDSWRKFHDALHKNHKDVTDSFYPAMRLILPQLERERMAYGIKETMLAKLYIELLNLPRDGKDALKLLNYRTPTGTHGDAGDFAMIAYFVLKPRCLQKGSLTIQQVNDLLDSIASNNSAKRKDLIKKSLLQLITQSSALEQKWLIRMIIKDLKLGVSQQTIFSVFHNDAAELHNVTTDLEKVCRQLHDPSVGLSDISITLFSAFKPMLAAIADIEHIEKDMKHQSFYIETKLDGERMQMHKDGDVYKYFSRNGYNYTDQFGASPTEGSLTPFIHNAFKADIQICILDGEMMAYNPNTQTFMQKGTKFDIKRMVEDSDLQTCYCVFDVLMVNNKKLGHETLRKRYEILSSIFTPIPGRIEIVQKTQAHTKNEVIDALNEAIDKREEGIMVKQPLSIYKPDKRGEGWLKIKPEYVSGLMDELDILIVGGYWGKGSRGGMMSHFLCAVAEKPPPGEKPSVFHTLSRVGSGCTMKELYDLGLKLAKYWKPFHRKAPPSSILCGTEKPEVYIEPCNSVIVQIKAAEIVPSDMYKTGCTLRFPRIEKIRDDKEWHECMTLDDLEQLRGKASGKLASKHLYIGGDDEPQEKKRKAAPKMKKVIGIIEHLKAPNLTNVNKISNIFEDVEFCVMSGTDSQPKPDLENRIAEFGGYIVQNPGPDTYCVIAGSENIRVKNIILSNKHDVVKPAWLLECFKTKSFVPWQPRFMIHMCPSTKEHFAREYDCYGDSYFIDTDLNQLKEVFSGIKNSNEQTPEEMASLIADLEYRYSWDCSPLSMFRRHTVYLDSYAVINDLSTKNEGTRLAIKALELRFHGAKVVSCLAEGVSHVIIGEDHSRVADFKAFRRTFKRKFKILKESWVTDSIDKCELQEENQYLI [LIG4]”, the “solubility change mitosis (log2)” value in the series with HeLa Kyoto [1] was -0.329. The thermal stability score was found to be 0.0186 with HeLa Kyoto [2] (setting [5]) and 0.758 in the series with HeLa Kyoto [2] (cell cycle stage: mitosis). The “solubility in G1/S (log2)” value in the series on HeLa Kyoto [3] was -0.0399. For the same sequence, the melting temperature with HeLa Kyoto [4] (cell cycle stage: G1/S) turned out to be 48.4 °C; in the series with HeLa Kyoto [4] (cell cycle stage: mitosis), 49.6 °C.
